Data reported in patent US20060246440.

Target: T1, GP-NRSF1-8 (UniProt Q13127)
T1 sequence: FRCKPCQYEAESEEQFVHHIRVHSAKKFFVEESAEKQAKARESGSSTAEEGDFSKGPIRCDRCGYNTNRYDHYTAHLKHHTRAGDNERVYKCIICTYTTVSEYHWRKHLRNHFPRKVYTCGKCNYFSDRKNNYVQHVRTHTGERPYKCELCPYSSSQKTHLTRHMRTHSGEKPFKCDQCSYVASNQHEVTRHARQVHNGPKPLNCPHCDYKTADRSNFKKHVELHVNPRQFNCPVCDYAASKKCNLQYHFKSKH
Experiment: one_hybrid
Conditions: bacterial two-hybrid lacZ reporter; nearly 7-fold vs Gal11P only

consensus NRSE (21 bp)
activity (fold activation): 7
